Results taken from patent US20170224799A1 (UNIVERSITY OF CONNECTICUT, published 2017).

T1: H-2 D^d (mouse, UniProt P01900 25-311, limits assumed)
T1 construct: construct not described
T1 sequence (MHC heavy, looked up): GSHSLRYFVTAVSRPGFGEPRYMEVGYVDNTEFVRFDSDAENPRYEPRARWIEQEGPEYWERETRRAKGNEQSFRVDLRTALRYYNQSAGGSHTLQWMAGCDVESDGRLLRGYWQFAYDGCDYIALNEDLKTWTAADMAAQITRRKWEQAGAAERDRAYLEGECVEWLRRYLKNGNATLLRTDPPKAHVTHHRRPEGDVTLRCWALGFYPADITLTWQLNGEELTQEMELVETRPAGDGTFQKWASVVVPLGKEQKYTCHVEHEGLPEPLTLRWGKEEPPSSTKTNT

T2: H-2 L^d (mouse, UniProt P01897 25-309, limits assumed)
T2 construct: construct not described
T2 sequence (MHC heavy, looked up): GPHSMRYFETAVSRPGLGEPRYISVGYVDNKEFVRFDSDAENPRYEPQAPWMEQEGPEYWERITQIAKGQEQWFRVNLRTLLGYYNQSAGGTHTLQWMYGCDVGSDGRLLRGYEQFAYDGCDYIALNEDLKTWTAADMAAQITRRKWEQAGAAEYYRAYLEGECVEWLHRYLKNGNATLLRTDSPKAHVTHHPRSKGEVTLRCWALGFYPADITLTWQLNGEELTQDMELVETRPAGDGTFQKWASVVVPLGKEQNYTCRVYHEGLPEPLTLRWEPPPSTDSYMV


Assays:
H-2 K^d = H-2 K^d (mouse, UniProt P01902 22-305); assay: competition with radiolabeled standard peptide, purified H-2 K^d
H-2 D^d = target: T1, H-2 D^d; assay: direct peptide-binding studies
H-2 L^d = target: T2, H-2 L^d; assay: direct peptide-binding studies

Chain of H-2 K^d (P01902 22-305): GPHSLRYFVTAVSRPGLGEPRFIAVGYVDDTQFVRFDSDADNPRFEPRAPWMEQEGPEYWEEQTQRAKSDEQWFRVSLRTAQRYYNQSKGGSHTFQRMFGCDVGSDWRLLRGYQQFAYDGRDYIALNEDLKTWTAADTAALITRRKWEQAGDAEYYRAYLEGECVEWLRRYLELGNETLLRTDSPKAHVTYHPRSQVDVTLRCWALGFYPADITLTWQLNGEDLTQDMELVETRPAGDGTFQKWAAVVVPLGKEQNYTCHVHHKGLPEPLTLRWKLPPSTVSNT

| Binder | IC50 (H-2 K^d) [nM] | binding result (H-2 D^d) | binding result (H-2 L^d) |
| --- | --- | --- | --- |
| SYMLQALCIP [Tnpo3.3 Mut peptide SYMLQALCIP] | 67 | – | – |
| DYVPMEQPR [Alkbh6.2 Mut peptide DYVPMEQPR] | – | no binding | no binding |
| LDMLQALCIP [Tnpo3.3 WT peptide LDMLQALCIP] | 111 | – | – |
| QVFPGLMEL [Atxn10.1 Mut peptide QVFPGLMEL] | – | no binding | no binding |
| ELQGLLEDEL [Ccdc136 Mut peptide ELQGLLEDEL] | – | no binding | no binding |

The remaining lines, values ahead:

| IC50 (H-2 K^d) [nM] | binding result (H-2 D^d) | binding result (H-2 L^d) | Binder |
| --- | --- | --- | --- |
| 14900 | – | – | SYMLQALC [Tnpo3.4 Mut peptide SYMLQALC] |
| – | no binding | no binding | ALKSEEKTL [Stau1.4 Mut peptide ALKSEEKTL] |
| 89 | – | – | LDMLQALC [Tnpo3.4 WT peptide LDMLQALC] |
| – | no binding | no binding | VFPGLMEL [Atxn10.2 Mut peptide VFPGLMEL] |
| – | no binding | no binding | GFHGCIHEVL [Slit3 Mut peptide GFHGCIHEVL] |
| 10000 | – | – | EYLDLQTQG [Zfp236.2 Mut peptide EYLDLQTQG] |
